Residue numbers refer to the chain shown, from its start. In names and notes the source's numbering stands.
B1: G410F: TP-DNAP1 variant (protein)
chain: MDYKDKALNDLRNVYADFDSLPLDFRQILIKDRATLLQKEDVEKKILERQEDAKKYAEYLKQSEIPERISLPNIKRHKGVSISFEETSEDMVLEPRPFIFDGLNIRCFRRETIFSLKNKILNMVKESSSFKNVSRQSVSFMYFKIFNKGKVIASTKSVNIYEDKIDERLEDLCNNFDDVLKKIIDVTYGYESLFVSETYSYVIFYAKSIYFPQPRCVNNWGNNIPNILTFDSFKLFTANKNNVSCIKQCSRFLWQKDFNTLEEMIEYKNGNICIVTPQLHINDVRDIKSFNDIRLYSESPIKTFSVIDNTITYLFYFKEHLGVIFNITKSRHDRRVTKFSPLSKFSDVKNITVCFDIESYFDPEKESNQVNIPFICCASIIYNKVIGNIVDFEGRDCVAQMIEYVVDICFELNISSVELIAHNGGGYDFHYILSSMYNPAAIKNILIRNNSFISFNFAHDGVKFSVKDSYSFLLCSLANASKAFLNEETFKKTDFPHHDLKTADDLYKVYKEWSSVNTEINHVVEKEKLLITSEHIVNFTKNDKSKTLIEWSKDYCRNDVLVLSKVWLEFKNAVEDIFNCELVDQTMTLAGLSYKLFQANMPFDVELRHPNKEDYFNMREALIGGRCISVNGIYKDVLCLDVKSLYPASMAFYDQPYGSFKRVSSRPKDELGIYYVRVTPNRNNKSNFFPIRSHNKITYNNFEESTYIAWYTNVDIDIGLSEGHNIEYIPFDSYGNIGYSWSKKGKIFEKYIKDVLYKLKIKYEKQNNKVKRNVIKIIMNSLWGKFAQKWVNFEYFIKSEDDIDFESEEAYKIWDTDFMLIKKIKESTYSSKPIQNGVFTLSWARYHMKSIWDAGAKEGAECIYSDTDSIFVHKEHFKKNAKFMLNGLKVPIIGSEVGQLELECEFDKLLCAGKKQYMGFYTYFQDGKPCIKEKKRFKGIPSNYIIPELYAHLLSGADKEAKIQFLKFRREWGSVKGYIENKTVKAT
B2: E411L: TP-DNAP1 variant (protein)
chain: B1 chain with F410G, E411L
B3: I414F: TP-DNAP1 variant (protein)
chain: B1 chain with F410G, I414F
B4: E411N: TP-DNAP1 variant (protein)
chain: B1 chain with F410G, E411N
B5: N291K: TP-DNAP1 variant (protein)
chain: B1 chain with N291K, F410G
B6: G410W: TP-DNAP1 variant (protein)
chain: B1 chain with F410W
B7: D460G: TP-DNAP1 variant (protein)
chain: B1 chain with F410G, D460G
B8: G410Y: TP-DNAP1 variant (protein)
chain: B1 chain with F410Y
B9: E411R: TP-DNAP1 variant (protein)
chain: B1 chain with F410G, E411R
B10: N611Q: TP-DNAP1 variant (protein)
chain: B1 chain with F410G, N611Q
B11: G410T: TP-DNAP1 variant (protein)
chain: B1 chain with F410T
B12: E411G: TP-DNAP1 variant (protein)
chain: B1 chain with F410G, E411G
B13: N611P, V897V: TP-DNAP1 variant (protein)
chain: B1 chain with F410G, N611P
B14: K612A: TP-DNAP1 variant (protein)
chain: B1 chain with F410G, K612A
B15: E411K: TP-DNAP1 variant (protein)
chain: B1 chain with F410G, E411K
B16: G410S: TP-DNAP1 variant (protein)
chain: B1 chain with F410S
B17: E411D: TP-DNAP1 variant (protein)
chain: B1 chain with F410G, E411D
B18: E411S: TP-DNAP1 variant (protein)
chain: B1 chain with F410G, E411S
B19: N291M: TP-DNAP1 variant (protein)
chain: B1 chain with N291M, F410G
B20: G426T: TP-DNAP1 variant (protein)
chain: B1 chain with F410G, G426T
B21: N413T: TP-DNAP1 variant (protein)
chain: B1 chain with F410G, N413T
B22: S415V: TP-DNAP1 variant (protein)
chain: B1 chain with F410G, S415V
B23: G461K: TP-DNAP1 variant (protein)
chain: B1 chain with F410G, G461K
B24: E411A: TP-DNAP1 variant (protein)
chain: B1 chain with F410G, E411A
B25: N413E: TP-DNAP1 variant (protein)
chain: B1 chain with F410G, N413E
B26: L412V: TP-DNAP1 variant (protein)
chain: B1 chain with F410G, L412V
B27: N413H: TP-DNAP1 variant (protein)
chain: B1 chain with F410G, N413H

What follows are molecules tested on p1 (assay: p1 copy number by p1-encoded mKate2 fluorescence). Details: OR-Y24, measured in triplicate.
Format: cell-based, S. cerevisiae
Procedure: A calibration curve was established to correlate p1 copy number, determined via quantitative PCR (qPCR), with fluorescence of p1-encoded mKate2 (Table 1). Five TP-DNAP1 variants representing a wide range of copy numbers were transformed into ORY24 and passaged until w.t. p1 was displaced. The five OR-Y24 strains were grown to saturation, diluted 1:10,000 to mimic p1 fluctuation tests, and grown in triplicate 100 μL cultures and duplicate 40 mL cultures. 100 μL saturated cultures were subject to fluorescence measurement of mKate2 (ex/em=561 nm/620 nm, bandwidth=15 nm) on a flow cytometer (Invitrogen Attune NxT). Whole-cell DNA extracts were prepared from 40 mL cultures and used as templates for qPCR measurement of p1-encoded leu2 (Q180*), as described previously (Ravikumar et al., 2014). p1-encoded LEU2 was PCR amplified with qPCR-Leu2F and qPCR Leu2R; and genomic LEU3 was PCR amplified with qPCR-Leu3F and qPCR-Leu3R using SyBR Green (Fisher Scientific) master mix.
To assay p1 copy number for large-scale p1 fluctuation tests, additional replicates of OR-Y24 strains were grown from the 1:10,000 dilution in triplicate and saturated cultures were subject to fluorescence measurement via flow cytometry. Fluorescence measurements were converted to copy number with the linear calibration curve.
To assay relative p1 copy number for small-scale p1 fluctuation tests, an additional 200 μL culture of OR-Y24 strains were grown from the 1:10,000 dilution. 200 μL saturated cultures were subject to an OD600 measurement and fluorescence measurement of mKate2 (ex/em=588 nm/633 nm), using a microplate reader (TECAN Infinite M200 PRO). A linear relationship was assumed between p1 copy number and OD600-normalized mKate2 fluorescence. Copy numbers were calculated from normalization to a w.t. TP-DNAP1 control.
For a few large-scale p1 fluctuation tests, p1 copy number was assayed by the method of small scale p1 fluctuation tests (i.e. microplate reader measurement). For these experiments, mutant TP-DNAP1 p1 copy numbers were calculated by normalization to a w.t. TP-DNAP1 control. The copy number of this control was assumed to be the average w.t. TP-DNAP1 copy number from all large-scale p1 fluctuation tests that used flow cytometry measurements.
TP-DNAP1 plasmids were isolated from these strains and subject to Sanger sequencing. 210 unique variants were identified and the corresponding plasmids were re-transformed into OR-Y24. Transformed strains were passaged in SC-UH until w.t. p1 was displaced, and subject to p1 copy number measurement in triplicate. Four high copy variants were directly subject to qPCR measurements for validation. To test the suppressor activity of the G410H mutation, which yields increased p1 copy number, this amino acid change was added to several low-activity TP-DNAP1 variants. p1 copy number was similarly assayed for these strains.
In the case of B1, the “Mean fold-increase over w.t. (p1 copy number)” value (shortened to “Mean fold-increase”) is reported as 2.66 fold.
In the case of B2, the “Mean fold-increase” value is reported as 2.22 fold.
B3 was tested, and the “Mean fold-increase” value was 1.29 fold.
In the case of B4, the “Mean fold-increase” value is reported as 1.9 fold.
For B5, the “Mean fold-increase” value was 1.66 fold.
B6 was tested, and the “Mean fold-increase” value was 2.5 fold.
B7 was tested, and the “Mean fold-increase” value was 1.63 fold.
In the case of B8, the “Mean fold-increase” value is reported as 2.73 fold.
B9 was tested, and the “Mean fold-increase” value was 2.07 fold.
B10 was tested, and the “Mean fold-increase” value was 1.92 fold.
With B11 the “Mean fold-increase” value was 2.57 fold.
For B12, the “Mean fold-increase” value was 1.54 fold.
With B13 the “Mean fold-increase” value was 2.04 fold.
B14 was tested, and the “Mean fold-increase” value was 1.94 fold.
B15 was tested, and the “Mean fold-increase” value was 2.39 fold.
B16 was tested, and the “Mean fold-increase” value was 2.27 fold.
With B17 the “Mean fold-increase” value was 2.32 fold.
B18 was tested, and the “Mean fold-increase” value was 1.52 fold.
For B19, the “Mean fold-increase” value was 2.28 fold.
In the case of B20, the “Mean fold-increase” value is reported as 1.22 fold.
In the case of B21, the “Mean fold-increase” value is reported as 1.76 fold.
With B22 the “Mean fold-increase” value was 1.44 fold.
For B23, the “Mean fold-increase” value was 2.15 fold.
For B24, the “Mean fold-increase” value was 2.08 fold.
In the case of B25, the “Mean fold-increase” value is reported as 2.62 fold.
With B26 the “Mean fold-increase” value was 2.21 fold.
For B27, the “Mean fold-increase” value was 2.2 fold.

From patent US20230242902A1, “A HIGHLY ERROR-PRONE […] R[…] FOR TARGETED CONTINUOUS EVOLUTION IN VIVO” (The Regents of the University of California, priority 2017, published 2023)
